Assay results reported in US6942981.
Ends that are not written are not given here. * marks the point of attachment. Biotin = O=C1N[C@H]2[C@H](CS[C@H]2CCCCC(=O)*)N1

T1: GST-NeDLG PDZ domains 1-2 fusion protein (Mus musculus (Mouse), UniProt P70175 147-332)
T1 construct: also called NeDLG1; not shown: glutathione S-transferase (GST) encoded by pGEX-3X
T1 chain: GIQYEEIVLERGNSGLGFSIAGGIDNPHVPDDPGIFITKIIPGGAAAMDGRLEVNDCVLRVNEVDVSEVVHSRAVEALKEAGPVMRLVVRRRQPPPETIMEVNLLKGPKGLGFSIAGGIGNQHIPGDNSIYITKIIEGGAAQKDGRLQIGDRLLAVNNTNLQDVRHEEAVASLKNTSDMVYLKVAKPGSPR

T2: GST-TAX2 PDZ domain fusion protein (human, UniProt O14908 129-216)
T2 construct: not shown: glutathione S-transferase (GST) encoded by pGEX-3X
T2 chain: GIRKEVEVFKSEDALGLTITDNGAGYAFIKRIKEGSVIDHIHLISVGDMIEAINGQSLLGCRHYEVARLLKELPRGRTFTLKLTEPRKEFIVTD

T3: GST-MPP2 PDZ domain fusion protein
T3 construct: also called maguk p55 subfamily member 2 (DLG2); MMP2; not shown: glutathione S-transferase (GST) encoded by pGEX-3X
T3 chain: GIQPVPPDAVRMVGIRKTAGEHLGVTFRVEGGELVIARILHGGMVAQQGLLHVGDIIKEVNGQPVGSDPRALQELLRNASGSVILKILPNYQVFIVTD

T4: GST-SYN1a (alpha1-syntrophin) PDZ domain fusion protein (Homo sapiens (Human), UniProt Q13424 84-179)
T4 construct: also called SYN 1 α; not shown: glutathione S-transferase (GST) encoded by pGEX-3X
T4 sequence: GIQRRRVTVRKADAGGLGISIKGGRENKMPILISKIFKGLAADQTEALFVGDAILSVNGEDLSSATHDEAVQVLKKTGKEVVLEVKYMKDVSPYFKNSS

T5: GST-DVL1 PDZ domain fusion protein (human)
T5 construct: also called human dishevelled segment polarity protein homolog; not shown: glutathione S-transferase (GST) encoded by pGEX-3X
T5 chain: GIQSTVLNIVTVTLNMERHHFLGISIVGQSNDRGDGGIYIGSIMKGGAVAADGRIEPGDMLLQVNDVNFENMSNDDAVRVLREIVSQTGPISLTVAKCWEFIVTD

T6: GST-MINT3 PDZ domain fusion protein (human)
T6 construct: also called human MINT3; not shown: glutathione S-transferase (GST) encoded by pGEX-3X
T6 chain: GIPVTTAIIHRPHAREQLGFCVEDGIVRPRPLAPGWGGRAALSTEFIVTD

T7: GST-LIMK2 PDZ domain fusion protein (human, UniProt P53671 147-237)
T7 construct: also called human LIM domain kinase 2; not shown: glutathione S-transferase (GST) encoded by pGEX-3X
T7 sequence: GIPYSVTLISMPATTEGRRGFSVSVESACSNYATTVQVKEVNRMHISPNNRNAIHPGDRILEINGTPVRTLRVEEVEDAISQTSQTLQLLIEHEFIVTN

T8: GST-MPP1 PDZ domain fusion protein (Homo sapiens (Human), UniProt Q00013 67-152)
T8 construct: also called 55 Kd erythrocyte membrane protein; not shown: glutathione S-transferase (GST) encoded by pGEX-3X
T8 sequence: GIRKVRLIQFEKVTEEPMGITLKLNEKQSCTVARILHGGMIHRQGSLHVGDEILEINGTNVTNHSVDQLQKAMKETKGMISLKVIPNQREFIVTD


Experiments:
[1] = target: T1, GST-NeDLG PDZ domains 1-2 fusion protein; test: A assay
[2] = target: T2, GST-TAX2 PDZ domain fusion protein; test: A/G assays
[3] = target: T3, GST-MPP2 PDZ domain fusion protein; test: A/G assays
[4] = target: T4, GST-SYN1a (alpha1-syntrophin) PDZ …; test: A/G assays
[5] = target: T5, GST-DVL1 PDZ domain fusion protein; test: A/G assays
[6] = target: T6, GST-MINT3 PDZ domain fusion protein; test: A/G assays
[7] = target: T7, GST-LIMK2 PDZ domain fusion protein; test: A/G assays
[8] = target: T1, GST-NeDLG PDZ domains 1-2 fusion protein; test: A/G assays
[9] = target: T8, GST-MPP1 PDZ domain fusion protein; test: A assay
[10] = target: T1, GST-NeDLG PDZ domains 1-2 fusion protein; test: G assay
[11] = target: T9, GST-NOS1 PDZ domain fusion protein (human, UniProt P29475 11-101); test: A/G assays
T9 construct: also called human neuronal nitric oxide synthase; not shown: glutathione S-transferase (GST) encoded by pGEX-3X
T9 sequence (P29475 other isoform, or with tags, fused parts or gaps): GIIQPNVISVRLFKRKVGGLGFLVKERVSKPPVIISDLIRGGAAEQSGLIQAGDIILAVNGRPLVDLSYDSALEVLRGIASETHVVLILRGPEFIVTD

[12] = target: T10, GST-KIAA0316 PDZ domain fusion protein (Homo sapiens (Human), UniProt Q14CM0 72-159); test: A/G assays
T10 construct: also called K316; not shown: glutathione S-transferase (GST) encoded by pGEX-3X
T10 sequence (Q14CM0 other isoform, or with tags, fused parts or gaps): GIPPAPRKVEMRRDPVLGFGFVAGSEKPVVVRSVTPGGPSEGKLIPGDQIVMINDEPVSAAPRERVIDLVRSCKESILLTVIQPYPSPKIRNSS

[13] = target: T1, GST-NeDLG PDZ domains 1-2 fusion protein; test: A and G assays
[14] = target: T1, GST-NeDLG PDZ domains 1-2 fusion protein; test: G assay titration of biotinylated peptide on immobilized GST-PDZ, saturation fit (apparent affinity)
Excerpt: FIGS. 2A and 2B show the Apparent Affinity Determination for PDZ-Ligand Interactions. […] The binding to GST alone (<0.2 OD units) was subtracted from the binding to the fusion proteins to obtain the signal at each peptide concentration.

[15] = target: T11, GST-PSD95 PDZ domains 1-3 fusion protein (human, UniProt P31016 58-395 (rat entry)); test: A assay
T11 construct: not shown: glutathione S-transferase (GST) encoded by pGEX-3X
T11 sequence (P31016 other isoform, or with tags, fused parts or gaps): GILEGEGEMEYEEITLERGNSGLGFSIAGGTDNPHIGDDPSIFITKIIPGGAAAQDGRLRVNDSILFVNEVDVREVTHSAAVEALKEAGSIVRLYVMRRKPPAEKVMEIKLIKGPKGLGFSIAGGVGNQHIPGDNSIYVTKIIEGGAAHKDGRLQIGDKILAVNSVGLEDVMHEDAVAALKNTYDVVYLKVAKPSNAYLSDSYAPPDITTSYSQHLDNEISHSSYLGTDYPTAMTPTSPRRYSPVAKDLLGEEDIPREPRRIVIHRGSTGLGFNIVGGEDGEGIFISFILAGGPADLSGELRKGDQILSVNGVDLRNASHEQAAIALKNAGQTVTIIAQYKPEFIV

| Binder | binding result [1] | binding result [2] | binding result [3] | binding result [4] | binding result [5] | binding result [6] | binding result [7] | binding result [8] | binding result [9] | binding result [10] | binding result [11] | binding result [12] | binding result [13] | Kd [14] [µM] | binding result [15] |
| --- | --- | --- | --- | --- | --- | --- | --- | --- | --- | --- | --- | --- | --- | --- | --- |
| Biotin-ARHRVTSYTSSSVNVSSNL [CDW128A (IL8RA) C-terminal peptide AA29.1L] | binds | no binding | no binding | no binding | no binding | no binding | no binding |  |  |  |  |  |  |  |  |
| Biotin-SPQPDSTDNDDYDDISAA [CD6 C-terminal peptide AA6L] |  | no binding | no binding | no binding | no binding | no binding | no binding | no binding |  |  |  |  |  |  |  |
| Biotin-VTSPNKHLGLVTPHKTELV [CD83 C-terminal peptide AA47L] | binds | no binding | no binding | no binding | no binding | no binding | no binding |  |  |  |  |  |  |  |  |
| Biotin-LERVSSTSPSTGEHELSAGF [CC CKR-1R C-terminal peptide AA41L] |  | no binding | no binding | no binding | no binding | no binding | no binding | no binding |  |  |  |  |  |  |  |
| Biotin-ARKANMKGSYSLVEAQKSKV [VCAM1 C-terminal peptide AA17L] | binds | no binding | no binding | no binding | no binding | no binding | no binding |  | binds |  |  |  |  |  |  |
| Biotin-SSKSKSSEESQTFFGLYKL (not fully specified) [FasLigand C-terminal peptide AA23L-M] |  | no binding | no binding | no binding | no binding | no binding | no binding | no binding |  |  |  |  |  |  |  |
| Biotin-YSATYSELEDPGEMSPPIDL (also called FceRlb; FcεRβI) [FceRIb C-terminal peptide AA25L] |  | no binding | no binding | no binding | no binding | no binding | no binding | no binding |  |  |  |  |  |  |  |
| Biotin-ENLAPVTTFGKTNGYIA [CD148 (DEP-1) C-terminal peptide AA19L (ending GYIA)] |  | no binding | no binding | no binding | no binding | no binding | no binding | no binding |  |  |  |  |  |  |  |
| Biotin-GKGKSIGRAPEASLQDKEGA [CC CKR-2 C-terminal peptide AA42L] |  | no binding | no binding | no binding | no binding | no binding | no binding | no binding |  |  |  |  |  |  |  |
| Biotin-KKGTYLTDETHREVKFTSL [CD46 (form 1) C-terminal peptide AA10L] |  | no binding | no binding | no binding | no binding | no binding | no binding |  |  | binds |  |  |  |  |  |
| Biotin-AWDDSARAAGGQGLHVTAL [LPAP C-terminal peptide AA30L] |  | no binding | no binding | no binding | no binding | no binding | no binding | no binding |  |  | no binding | no binding |  |  |  |
| Biotin-KDSRPSFVGSSSGHTSTTL [CDW128B (IL8RB) C-terminal peptide AA29.2L] |  | no binding | no binding | no binding | no binding | no binding | no binding |  |  |  |  |  | binds |  |  |
| Biotin-DLGNMEENKKLEENNHKTEA [CD166 (CD6L) C-terminal peptide AA20L] |  | no binding | no binding | no binding | no binding | no binding | no binding | no binding |  |  |  |  |  |  |  |
| Biotin-SSSQSLESDGSYQKPSYIL [CD62E C-terminal peptide AA48L] |  | no binding | no binding | no binding | no binding | no binding | no binding | no binding |  |  |  |  |  |  |  |
| Biotin-KDITSDSENSNFRNEIQSLV [CD95 (Apo-1/Fas) C-terminal peptide AA13L] |  | no binding | no binding | no binding | no binding | no binding | no binding |  |  |  |  |  |  | 54 |  |
| Biotin-ISKATPALPTVSISSSAEV [CLASP-1 C-terminal peptide AA1L] |  | no binding | no binding | no binding | no binding | no binding | no binding |  |  | binds |  |  |  |  | binds |
